From patent US20180128830A1, “DETECTION OF HUMAN CYTOMEGALOVIRUS IN BREAST CANCER” (priority 2015, published 2018) come the findings set out here.

For assay [1], the system named is MDA-MB-231 cells. Nature of the assay: DNA synthesis, BrdU Cell Proliferation ELISA. The class given is cell-based, human. Conditions: 100 ng/ml, vs control. Here is the method: (§1) Cells were seeded into 96-well dishes at a density of 1×10^4 cell per well in complete medium with varying doses of cmvIL-10, and then cell viability measured at the indicated time points using the Cell Titer Glo Assay kit according to manufacturer's instructions (Promega). DNA synthesis was measured in cells prepared in the same way using the BrdU Cell Proliferation ELISA Kit (Roche, Basel, Switzerland). For experiments using inhibitors, cells were cultivated in 96-well dishes as above with a final concentration of 10 μM inhibitor and BrdU incorporation evaluated after 72 hrs. For cell counts, cells were seeded into 6-well plates at a density of 2×10^5 cells per well, harvested via trypsinization, and counted using a hemacytometer at the indicated time points. The TACS Annexin V-FITC Detection Kit (Trevigen, Gaithersburg, Md.) was used to stain cells harvested from 70% confluent T75 flasks that had been treated with 100 μM etoposide for 48 hrs in the presence or absence of 100 ng/ml cmvIL-10. Cells were then analyzed via flow cytometry to detect fluorescence. For viability assays, Cell Titer Glo reagent was utilized to quantify cells that had been seeded into 96-well dishes at a density of 1×10^4 cell per well in complete medium with varying doses of etoposide in the presence or absence of 100 ng/ml cmvIL-10 as indicated
For orientation: ELISA stands for enzyme-linked immunosorbent assay.

The test system of a further assay is MMP-3. Nature of the assay: MMP-3 western blotting and zymography. The class given is cell-based, human. Conditions: over time. The method, then:
(§2) Confluent T-75 flasks of MDA-MB-231 cells were treated with 10 ng/mL cmvIL-10 (R&D systems) for the indicated times, then scraped and harvested into cell lysis buffer (150 mM NaCl, 20 mM HEPES, 0.5% Triton-X-100, 1.0 mM NaOV4, 1.0 mM EDTA, 0.1% NaN3) containing 1× protease inhibitors (Calbiochem). Cell lysates were clarified via centrifugation, heated at 70° C. for 10 min in reducing buffer, and the proteins separated on a 4-12% Tris-Base SDS-PAGE gel (Life Technologies, Grand Island, N.Y.). After transfer to nitrocellulose, the membrane was incubated in blocking solution (5% milk+TBS) for 1 hr at room and then probed with primary antibody: 1:1000 dilution for MMP-3 or MTSS-1 antibodies (Santa Cruz), or MAPK antiserum (Cell Signaling Tech, Danvers, Mass.), in blocking solution overnight, oscillating on a platform rocker at 4.0° C. After three washes, the membranes were incubated with a 1:2000 dilution of appropriate AP-conjugated secondary antibody on a platform rocker at room temperature for 1 hr. Protein bands were detected using western blue stabilized AP substrate (Promega, Madison, Wis.). For zymography, cell lysates were denatured in SDS buffer under non-reducing conditions without heat, and run on a 4-16% Zymogram gel using Tris-Glycine SDS running buffer according to manufacturer's instructions. […]
(A western blot detects proteins with antibodies after separation by electrophoresis.)

The next assay deals with Stat3. Nature of the assay: Cell-based Stat3 ELISA. Further details: species or system human. The following applies: varying doses, 15 min. The method, then:
For the Stat3 ELISA, cells were seeded into 96-well dishes at a density of 1×10^4 cell per well, treated with varying doses of cmvIL-10 in triplicate for 15 min, and then lysed in the plate and assayed for total or pStat3 using the Cell-based Stat3 ELISA kit according to manufacturer's instructions (R&D Systems). The detection of hIL-10 in supernatants from MDA-MB-231 cell cultures was performed using the IL-10 ELISA DuoSet kit as directed (R&D Systems).

Assay [2] relates to MDA-MB-231 cells. Nature of the assay: Apoptosis, Annexin V-FITC flow cytometry. The class given is cell-based, human. Conditions: 100 ng/ml cmvIL-10 plus 100 μM etoposide, 48 hrs. Here is the method:
as §1
(In general: Flow cytometry measures light scatter and fluorescence of single cells or particles in a stream.)

A further assay deals with MTSS1. Nature of the assay: MTSS1 immunoblotting. The class given is cell-based, human. Conditions: 10 ng/mL, beyond 24 hours. The method, then: as §2
Another assay addresses T1, CXCR4 (Homo sapiens, UniProt P61073).
T1 construct: HEK293 cells, which endogenously express both CXCR4 and IL-10R; endogenous in cells; host or cells: HEK293
Nature of the assay: Calcium flux assay in HEK293 cells. The assay is classed as cell-based. Here is the method:
Calcium flux assays were performed as described (Arnolds K L, et al. Virology 439:122-131.). Briefly, cells were resuspended in 2 mls calcium assay buffer (RPMI with 25 mM of HEPES) at a density of 5×10^5 cells/ml per sample. Each sample was labeled with 2 μl of Fluo-4AM (Invitrogen, Grand Island, N.Y.), wrapped in foil, at 37° C. for 30 minutes with agitation at 10-minute intervals. Following incubation, each sample was pelleted, resuspended in calcium assay buffer, and transferred into an eppendorf tube for flow cytometry using the BD C6 Accuri. Fluorescence intensity of each sample was measured for 20 seconds to establish baseline, then stimulus (CXCL12, in the presence or absence of cmvIL-10, as indicated) was added via micropipetting directly into the sample while fluorescence intensity was measured. Kinetic fluorescence intensity analysis was performed with FlowJo software v9.4.9 (FlowJo, Ashland, Oreg.). Purified recombinant cmvIL-10 was purchased from R&D Systems (Minneapolis, Minn.) and purified recombinant CXCL12 was purchased from Peprotech (Rocky Hill, N.J.). For each calcium flux assay, ionomycin (Sigma) was a positive control for Fluo-4AM loading and PBS served as a negative control for the addition of stimulus.

T1 sequence (P61073 whole entry): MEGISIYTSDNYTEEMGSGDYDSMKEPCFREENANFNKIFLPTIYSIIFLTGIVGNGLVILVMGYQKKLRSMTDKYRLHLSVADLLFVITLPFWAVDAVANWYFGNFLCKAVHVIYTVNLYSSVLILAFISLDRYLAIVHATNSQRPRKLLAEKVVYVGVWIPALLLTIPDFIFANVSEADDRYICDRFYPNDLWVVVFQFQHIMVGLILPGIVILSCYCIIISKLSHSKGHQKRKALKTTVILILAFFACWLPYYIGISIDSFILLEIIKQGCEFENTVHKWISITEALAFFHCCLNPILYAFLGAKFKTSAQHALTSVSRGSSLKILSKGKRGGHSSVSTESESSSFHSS

B1: cmvIL-10 (protein)
chain: ATTTTIKNTKPQCRPEDYATRLQDLRVTFHRVKPTLQREDDYSVWLDGTVVKGCWGCSVMDWLLRRYLEIVFPAGDHVYPGLKTELHSMRSTLESIYKDMRQCPLLGCGDKSVISRLSQEAERKSDNGTRKGLSELDTLFSRLEEYLHSRK
For the molecule B1, the “rate of DNA synthesis (BrdU incorporation)” value with MDA-MB-231 cells [1] is on record as “significantly higher”. Moreover, in the assay with MMP-3, the “amount of active MMP-3 enzyme (zymography, casein digestion)” value was “also increased” and the “total MMP-3 protein (western blot)” value is “increase in total MMP-3 protein”. In addition, the “amount of Stat3 phosphorylation (pStat3 to total Stat3)” value in the assay with Stat3 was “increased in a dose-dependent manner”. For the same molecule, in the assay with MDA-MB-231 cells [2], the “cells stained positive for Annexin V” value came out at 14.8%. Moreover, the “MTSS1 protein (82 kD band)” value in the assay on MTSS1 is “significant decrease in MTSS1 expression”. In addition, the “peak fluorescence intensity of calcium mobilization” value with CXCR4 (CXCL12 0.1 μg/ml plus cmvIL-10 0.1 μg/ml) was “significantly higher”. Further, in the assay with CXCR4 (cmvIL-10 alone), the calcium mobilization result is “did not induce calcium mobilization”.
